# Measured values published in patent publication US20250145720A1.
# pKd: −log10 of the molar value.
# Experiments:
# [1] = target: human complement component C1q (human) (UniProt P02745); test: cell-based or functional assay
# [2] = target: human complement component C1q (human) (UniProt P02745); test: FACS, C1q on antibody-opsonized Daudi cells, Exp. 5
# [3] = target: human complement component C1q (human) (UniProt P02745); test: FACS, C1q on antibody-opsonized Daudi cells, Exp. 11
# [4] = target: human complement component C1q (human) (UniProt P02745); test: FACS, C1q on antibody-opsonized Daudi cells, average
# [5] = target: human complement component C1q (human) (UniProt P02745); test: FACS, C1q on antibody-opsonized Daudi cells, ranking table
# [6] = target: human complement component C1q (human) (UniProt P02745); test: FACS, C1q on antibody-opsonized Daudi cells, ranking table; no reliable fit
# [7] = target: human complement component C1q (human) (UniProt P02745); test: FACS, C1q on antibody-opsonized Daudi cells, Exp. 6; no reliable fit, too weak binding
# [8] = target: human complement component C1q (human) (UniProt P02745); test: FACS, C1q on antibody-opsonized Daudi cells, Exp. 11; no reliable fit, too weak binding
# [9] = target: human complement component C1q (human) (UniProt P02745); test: FACS, C1q on antibody-opsonized Daudi cells, average; no reliable fit, too weak binding
# [10] = target: human complement component C1q (human) (UniProt P02745); test: FACS, C1q on antibody-opsonized Daudi cells, Exp. 9
# [11] = target: human complement component C1q (human) (UniProt P02745); test: FACS, C1q on antibody-opsonized Daudi cells, Exp. 7
# [12] = target: human complement component C1q (human) (UniProt P02745); test: FACS, C1q on antibody-opsonized Daudi cells, Exp. 8
# [13] = target: human complement component C1q (human) (UniProt P02745); test: FACS, C1q on antibody-opsonized Daudi cells, Exp. 10
# [14] = target: human complement component C1q (human) (UniProt P02745); test: FACS, C1q on antibody-opsonized Daudi cells, average (row shifted one column to the left)
# [15] = target: human complement component C1q (human) (UniProt P02745); test: FACS, C1q on antibody-opsonized Daudi cells, Exp. 5; no reliable fit, too weak binding
# Chain of human complement component C1q (human) (P02745 23-245 limits assumed, chain 1 of 3): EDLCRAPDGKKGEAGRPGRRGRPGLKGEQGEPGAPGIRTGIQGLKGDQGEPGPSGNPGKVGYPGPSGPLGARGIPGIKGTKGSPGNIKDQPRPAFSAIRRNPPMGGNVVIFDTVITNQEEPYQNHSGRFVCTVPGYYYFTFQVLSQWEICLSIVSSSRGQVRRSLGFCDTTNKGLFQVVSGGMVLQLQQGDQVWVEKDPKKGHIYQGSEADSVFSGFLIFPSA
# Chain of human complement component C1q (human) (P02746 28-253 limits assumed, chain 2 of 3, further chain): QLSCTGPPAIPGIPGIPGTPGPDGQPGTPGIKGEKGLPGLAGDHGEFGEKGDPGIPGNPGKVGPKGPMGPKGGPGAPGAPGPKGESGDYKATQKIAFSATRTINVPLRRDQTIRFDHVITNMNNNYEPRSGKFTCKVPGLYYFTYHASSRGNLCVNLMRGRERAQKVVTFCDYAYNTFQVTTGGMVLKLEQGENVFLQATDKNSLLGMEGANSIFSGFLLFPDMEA
# Chain of human complement component C1q (human) (P02747 29-245 limits assumed, chain 3 of 3, further chain): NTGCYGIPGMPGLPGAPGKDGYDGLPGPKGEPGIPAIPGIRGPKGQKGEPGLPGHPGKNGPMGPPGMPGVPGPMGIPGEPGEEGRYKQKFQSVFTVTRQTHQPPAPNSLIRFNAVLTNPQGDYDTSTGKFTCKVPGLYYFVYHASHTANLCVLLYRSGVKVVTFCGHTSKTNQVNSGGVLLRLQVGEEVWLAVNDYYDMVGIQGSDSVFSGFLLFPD
"CH50 (C1q concentration giving 50% lysis), CDC on Raji cells in C1q-depleted serum [1]","EC50 of CDC on Daudi cells, 20% normal human serum [1]","EC50 of CDC on Raji cells, 20% normal human serum [1]",pKd [2],pKd [3],pKd [4],pKd [5],pKd [6],pKd [7],pKd [8],pKd [9],pKd [10],pKd [11],pKd [12],pKd [13],pKd [14],pKd [15],Substance
> 30 µg/mL,3.03 µg/mL,19.3 µg/mL,7.49,6.67,6.91,6.91,,,,,,,,,,,IgG1-7D8-H310K (antibody)
,1.9 µg/mL,11.9 µg/mL,,,,,5.89,,6.89,5.89,,,,,,5.62,IgG1-7D8-Y436C (antibody)

# The next lines start with the substance.
Substance,"CH50 (C1q concentration giving 50% lysis), CDC on Raji cells in C1q-depleted serum [1]","EC50 of CDC on Daudi cells, 20% normal human serum [1]","EC50 of CDC on Raji cells, 20% normal human serum [1]",pKd [2],pKd [3],pKd [4],pKd [5],pKd [6],pKd [7],pKd [8],pKd [9],pKd [10],pKd [11],pKd [12],pKd [13],pKd [14],pKd [15]
IgG1-7D8-H433D (antibody),> 30 µg/mL,4.73 µg/mL,> 30 µg/mL,,,,,5.71,5.91,5.57,5.71,,,,,,
IgG1-7D8-H433R (antibody),0.16 µg/mL,0.33 µg/mL,1.42 µg/mL,,,,8.52,,,,,8.24,9.14,8.75,8.80,8.52,
IgG1-7D8-Q438D (antibody),> 30 µg/mL,2.61 µg/mL,19.5 µg/mL,6.12,6.18,6.14,6.14,,,,,,,,,,
